Consider 50 sequences from the domain aggregation screens of Martell et al. (2025).

The nature of the data set: soluble fraction after stress (log2 fold change); higher = more stays soluble; pooled small domains, quantitative proteomics. The note with it: stress: 50 degC. The essentials: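 Each library was heated to 50°C as a stress step. The libraries, made up of small protein domains, were pooled and analysed at high throughput by quantitative proteomics. The reported value is the base-two logarithm of the fold change in each protein's soluble amount after stress, taken as a measure of aggregation propensity. The higher the value, the more protein stays in solution.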
Take “HMNTWVEIFRAEDQGQIRDASLVLLAVKVAHRVDMNSSSAPWSLMVPAQDQQRAHHELTTYWQENAH”: the “soluble fraction (log2)” value is -1.43.
For the sequence “HMDSDIGQQLKILLTVGTFMPSTELKAIAQQFGMKKPTDLKEWVELESDTQRIKGNPTKGYWINEINDL”, the “soluble fraction (log2)” value was -0.562.
Take “HMEELIIQEELANKRLDIAISLLFPELTRAHAQKLIKEGSVLVDGKPRKASYPLTAGKRLSVTLPEPE”: the “soluble fraction (log2)” value was determined as 0.05.
Consider “HMNTSSVTVHYQDEAGKSLADTVTLTGKVGETYSSEQKKITGYNFKEVRGNPKGQFTTEAQTVTYVYTQAA”, for which the “soluble fraction (log2)” value is 0.156.
“HMAPFVIQQGQDVRLISKGPGFAVSNDGKALTNAAEGQLARARTANGQTVSGIARQGGIIEIA”: the “soluble fraction (log2)” value was found to be 0.00455.
In the case of “HMITKEDVANKKVNLLFFGNFHKMKLPDFEWGITEMMQDRDYLYGSLTKDLYFLGLVLDRKYKI”, the “soluble fraction (log2)” value came to 0.0334.
The figure for “HMGMETQLSPKEKSIYTIIQNRPNIQSGEVSEKLAIPLPTVKRILSDLINKGLIEKQGSGRNVSYTI” is 0.254.
Turning to “HMDNREKLRQEFLENLKELQEQNDIPQQEIDRVILDYDGVAEFLEDEGALKRYGGQLVDMTAYRAGAIPS”, the “soluble fraction (log2)” value is -0.0987.
For “HMKEPIYQTILSALILELNTNHFRKNDPFYSESELRKKYQVSSTTVVRVLNMLADQGYIYRIQGKGSFVSK”, the “soluble fraction (log2)” value is -2.37.
For “HMLLREKLESVLPFISVSALAKTYFKRSPQWFYQRLNGSIVNGKPIRFNDAELKTLAGALTDIGKKISQAA”, the “soluble fraction (log2)” value was -0.322.
For “HMENIIKISASYEGLRVDQFLSNYLKISRSKVQKYISEEKIFLNNVPTKTNRKVKLDDIISYNLNF”, the “soluble fraction (log2)” value is -3.01.
The figure for “HMQAPAFDYSKVQEGVTVNHKIFGDGTVSWIDKARKYIRVQFSVGEKMFTMETAFVQGFLSL” is -0.348; for “HMTHEAEDLNALRMMVRDPIFSSDEPDLQQLRGAVAHAPQFVDRFKELYNDYQRLAEFVQNSL” it is -0.769; for “HMQVSEQVQRLLDALENDTLTTKELMDRLGLKHRPTFRKNYLLPSMKLGLVEMTIPDKPNSSRQKYRRRQ” it is -0.65.
As for “HMGSDAFDISKLNLVGKTKESAESLLKENGFSVDTKEEASDTAAKGTVISYSPTKPKNGERVTLTVSSGK”, the “soluble fraction (log2)” value stood at 0.337.
Regarding “HMIFSIIPGQIRLTKMEIADGYLVLYGFTPSKEIYNLHLNPALKSIFTSSETSFIPVSGGLKFMSTNKL”, the “soluble fraction (log2)” value is -1.78.
Take “HMSDAGAIEPTIKEILASNPKAVEEYLAGNIKNINALIGQSMKALHGKADPQTVRNLLAKLLDEM”: the “soluble fraction (log2)” value was -0.219.
Consider “HMSTSFQVQVSVLDLRIRKEPTVKGQEVGKISKGIHTITETRSADGYTWGKLESGQGWIALEFTTKLD”, for which the “soluble fraction (log2)” value was -0.194.
As for “HMGSSLLSPKEREVLQLLAGNLSNKQIALAMGVSDETIKWHLRNLFGKLNAGGRKHLIDRARMLGLLAAA”, the “soluble fraction (log2)” value is -0.6.
Turning to “HMVKRAYGEYVNVKLTDADLSKLKADFPADWQERIERLSTYMASTGKTYKNHLATIRNWARRDAERVSA”, the “soluble fraction (log2)” value worked out at 0.22.
Consider “HMNKFKVNERVRVIATGEIGIVKGREILPVEGSKRVNIEYLVKVGNGFSNWKAFSKKELEPVR”, for which the “soluble fraction (log2)” value was -1.18.
In the case of “HMQNWFADPKFEMFEDYGDAQSFYDTETKNIYVVMAEYGQKGSNTIQEITPDSEEYIPNYEKYKEYMENK”, the “soluble fraction (log2)” value was -0.387.
In the case of “HMYYSERILTILEERGISPYRVSKETGISQSVFSNWKRKPTSRITAANLERLADYLGLPVEVLTG”, the “soluble fraction (log2)” value was -3.45.
The figure for “HMTKDEIIIQSIIDAAKKLMQQYGLNKTTMEDIAKEAGKGKSTLYHYFKSKEEIFDQVINQEID” is -0.0722; for “HMDGPGAGGRFLAEDLGTGKMTLEALQRHYVTLVYSRTGKYEETARRLEIDRRTVKKYLDEELLAELRET” it is 0.084.
The figure for “HMKTLELIAAIRKRIAGGYAGADGRLPNIGEIAKDFSVSPMTAQKAVRALVEAGVLTSTRRKGVFLKQPAS” is -1.01.
The figure for “HMAFRLPNGYGTIRRLTGNRRKPYVALVNPTQVFDDEKGTSHYKYDLLGTFAEKIDAYNAVMQYHKSPGGL” is -1.35.
Turning to “HMPHFFISTSDVNQDIITVSDKENFHHIARVLRSKVGETLLLVDENRTQYKVVIQNIDSKSITTKVVETLK”, the “soluble fraction (log2)” value is -0.138.
Regarding “HMDDVVVLPFTAEFARMSSDDFVREILVGKIGMKRFVVGYNHRFGSGQQGDFASLQRMQGELGFVAVRVG”, the “soluble fraction (log2)” value worked out at 0.0571.
Consider “HMRNGGHTVYRNNGSLFIVVRDGDKLESVASEFRVSPKKLIKYNDLDIHSNVKTGDMIYIRPKA”, for which the “soluble fraction (log2)” value is -0.236.
For “HMLLQTRQRHEALAALGYFKGDVAAAWGPASEEALRAAQAAFGITVDGKWGPQTEDAIQGALQV”, the “soluble fraction (log2)” value was -0.213.
The figure for “HMGDSVLNDKLNTLAGLDEERFKWVLASLNPNNSYSTHSDKMSALMWLVSYFNDEADLKETVPPLPI” is -0.0724; for “HMFPNQLLISRLSNQLSASERFAAVSSIAQLKNIDYDVLHVLVHTMNSDPNSNVRLAALEALSR” it is -0.529; for “HMRRMTEEQSKLFQGLVSIVQTTLVADMEKGAVTPLLIAEKVDFVADNLYPGKDIDRKEAVAELIRRFSLW” it is -0.339.
On to “HMQILPAFLPENPELRARLANHSLEELTEILKQYKTLHNSTDVDTVKRAIRAIEIEEYYAVHPV”, for which the “soluble fraction (log2)” value is -0.777.
Regarding “HMSWEELLEHLEKAAERGEEVRIAGVTLHDEEDFKRALRWLKEWL”, the “soluble fraction (log2)” value was -1.93.
On to “HMGDEHYDTISAFIKSVRGSDPDAALYWLAKMILAGEDPRFILRRLIVLSGEDIGLADPQGI”, for which the “soluble fraction (log2)” value is -0.653.
The figure for “HMAVSPEEQKKRIIELFRNRNEVSFKEIFDLPTKGHFVITLLAVLDLARQQIVIMEQLENEGIIKFTKGA” is -0.0715.
The figure for “HMGVDKLTPREREVLALMAQGASNREIEGKLVLTAGAVSKHVANVFMKLGFSPEDENRRVKAVLAWLRTK” is -1.05; for “HMHDITPAVAETFKQLRAERGLSLSQAAQLTGVSKAMLGQIERGQSSPTVSTLWKIATGFNVAFSVFL” it is -2.4.
On to “HMVENMDEFIGRVRRLVSDRLDLLKEASDDEIRETISQVVLELSREQFLTLNEKKTVLEGVFNSMR”, for which the “soluble fraction (log2)” value was -0.399.
The figure for “HMSQISKLWRPSEDVTEILTRSGMDSEFLEGLIPEFIIYWSERADVLVSYNSKFIEHARLKWAQHSAEIKT” is -2.63.
Consider “HMEEQKYEYHLGDVVYLGVDKYEILGITNNIVTLYDPEFPLLNKQLDFDEFEKRVKDNYANEHLKVT”, for which the “soluble fraction (log2)” value is -0.429.
Turning to “HMFIVTDQMQRVLDYITEKEKATNNDLEELLGVKSTRIYTITRKLIQHNLIIPVGKGKNKYYIL”, the “soluble fraction (log2)” value was -0.79.
Take “HMVISAKRMQDRRDSILDAAREAFARAGFEGTSIADIARRAGVSDGLVYRYFASKRDLLNAVLTA”: the “soluble fraction (log2)” value is -0.83.
Turning to “HMQNPYDTLGVSRDSTDAEIKKAYRKLAMEHHPDKGGDSQRFAEINNAYDNIKDMSSRQNFENDPSNFQ”, the “soluble fraction (log2)” value came out at 0.288.
For “HMVEGTVKWFNDEKGFGFIEQEGGKDVFVHFSAINGSGRRTLHEGQRVTMEVTQGQKGPQAENVNP”, the “soluble fraction (log2)” value was found to be 0.181.
Take “HMGETAFRYALPLDQGEALKRSHVIRQSISPDDALATRVTVLEDVLDQTLRQPVQAGEVLLEDHFTR”: the “soluble fraction (log2)” value is -0.00712.
On to “HMKWYDSDKGFGFLSQEEGEDVYVRSSALPAGVEGLKAGQRVEFGIASGRRGPQALSL”, for which the “soluble fraction (log2)” value was -0.0714.
Take “HMKIVPEPGTVLIREYQEERHEVTVTLDGAFDYKGTLYSSLSEIARLITGTRWSGPVFFGLRS”: the “soluble fraction (log2)” value was -0.4.
